The text below walks through data of article PMC11315929, “A novel role for the peptidyl-prolyl cis-trans isomerase Cyclophilin A in DNA-repair following replication fork stalling via the MRE11-RAD50-NBS1 complex” (EMBO Reports, 2024).

The target of this assay is T1, recombinant human Strep-tagged CYPA (human, UniProt P62937 1-165).
T1 construct: Cyclophilin A (CYPA, PPIA), human; The methods also call such proteins Streptavidin-tagged; also called CYPA-Strep; source: E. coli BL21(DE3), purified (Strep-Tactin Superflow Plus cartridge, PD10 desalting)
Briefly: pull-down; recombinant Strep-tagged CYPA and HIS-tagged FHA-BRCT1 combined, 30 min 4 °C; MagStrep type3 XT beads 1 h 4 °C in 100 mM Tris-Cl pH 8, 150 mM NaCl, 1 mM EDTA, 0.5 mg/ml BSA; elution with 50 mM biotin; western blot; beads alone as control. Conditions: both partners purified.

T1 sequence (P62937 whole entry): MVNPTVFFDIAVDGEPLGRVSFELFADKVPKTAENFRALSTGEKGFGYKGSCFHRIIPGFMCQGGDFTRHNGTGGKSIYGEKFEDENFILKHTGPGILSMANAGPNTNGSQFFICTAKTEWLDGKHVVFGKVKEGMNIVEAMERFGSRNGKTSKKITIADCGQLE

B1: recombinant HIS-tagged human NBS1 peptide composed of FHA-linker-BRCT1 (aa 1-182), wild type (domain or fragment, UniProt O60934 1-182, looked up)
chain: MWKLLPAAGPAGGEPYRLLTGVEYVVGRKNCAILIENDQSISRNHAVLTANFSVTNLSQTDEIPVLTLKDNSKYGTFVNEEKMQNGFSRTLKSGDGITFGVFGSKFRIEYEPLVACSSCLDVSGKTALNQAILQLGGFTVNNWTEECTHLVMVSVKVTIKTICALICGRPIVKPEYFTEFLK
notes: NBS1 (nibrin), human, UniProt O60934, FHA-linker-BRCT1, aa 1-182; also called WT HIS-tagged FHA-BRCT1; NBS1 FHA-BRCT1 peptide; source: E. coli BL21(DE3), purified (HiTrap TALON Crude, PD10 desalting)
B1: the binding result is given as “binds”.
